Test results reported in paper PMC6690965, “OsCAldOMT1 is a bifunctional O-methyltransferase involved in the biosynthesis of tricin-lignins in rice cell walls” (Scientific Reports, 2019).

Key:
[1] = substrate: COc1cc(-c2cc(=O)c3c(O)cc(O)cc3o2)cc(O)c1O; assay: HPLC/LC-MS O-methylation assay, Michaelis-Menten fit; assay type: biochemical, Oryza sativa; conditions: 50 mM Tris-HCl pH 7.5, co-substrate S-adenosyl-L-methionine, 20 min, 10-200 µM substrate, 5'-O-methylation giving tricin
[2] = substrate: COc1cc(/C=C/C=O)cc(O)c1O; assay: as above; assay type: biochemical, Oryza sativa; conditions: 50 mM Tris-HCl pH 7.5, co-substrate S-adenosyl-L-methionine, 20 min, 10-200 µM substrate

B1: OsCAldOMT1 (Oryza sativa Japonica Group) (protein)
chain: MGSTAADMAAAADEEACMYALQLASSSILPMTLKNAIELGLLETLQSAAVAGGGGKAALLTPAEVADKLPSKANPAAADMVDRMLRLLASYNVVRCEMEEGADGKLSRRYAAAPVCKWLTPNEDGVSMAALALMNQDKVLMESWYYLKDAVLDGGIPFNKAYGMTAFEYHGTDARFNRVFNEGMKNHSVIITKKLLDLYTGFDAASTVVDVGGGVGATVAAVVSRHPHIRGINYDLPHVISEAPPFPGVEHVGGDMFASVPRGGDAILMKWILHDWSDEHCARLLKNCYDALPEHGKVVVVECVLPESSDATAREQGVFHVDMIMLAHNPGGKERYEREFRELARAAGFTGFKATYIYANAWAIEFTK
Protein B1 has a Km [1] of 68.2 ± 14.5 µM, a kcat [1] of 158.5 ± 16.6 s⁻¹ and a Km [2] of 132.8 ± 21.3 µM. The kcat [2] was 373.0 ± 37.9 s⁻¹.
